{
  "source": "patent US20170291930",
  "key": {"[1]": {"test_system": "T1, Hst-5 synthetic peptide K17L", "T1 sequence": "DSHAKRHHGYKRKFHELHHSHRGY"}, "[2]": {"test_system": "T2, Hst-5 synthetic peptide K13L", "T2 sequence": "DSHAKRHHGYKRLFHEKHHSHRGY"}, "[3]": {"test_system": "T3, Hst-5 synthetic peptide K17R", "T3 sequence": "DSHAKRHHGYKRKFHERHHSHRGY"}},
  "data": [
    {"substance": "purified recombinant Sap9 (C. albicans secreted aspartic protease 9)", "values": [
      {"measurement": "cleavage at the C-terminal side of residue 17 by Sap9 (mass spectrometry)", "setting": "[1]", "result": "while the parent Hst-5 was cleaved on the C-terminal side of K17, neither K17R nor K17L showed significant cleavage at this site"},
      {"measurement": "cleavage site preference of Sap9 (mass spectrometry)", "setting": "[2]", "result": "K13L showed an apparent shift in cleavage site preference compared to the parent Hst-5. The fragments containing amino acids 1-12 and 13-24 had higher signals for K13L than the fragments containing amino acids 1-17 and 18-24"},
      {"measurement": "cleavage at the C-terminal side of residue 17 by Sap9 (mass spectrometry)", "setting": "[3]", "result": "while the parent Hst-5 was cleaved on the C-terminal side of K17, neither K17R nor K17L showed significant cleavage at this site"}
    ]}
  ]
}
